From patent US7037504B2, “Epidermal growth factor protein and gene, and methods of use therefor” (Waratah Pharmaceuticals, Inc., priority 2001, dated 2006) come the findings set out here.

One data set deals with T1, carboxypeptidase B (Homo sapiens, UniProt P15086).
T1 sequence (P15086 111-417): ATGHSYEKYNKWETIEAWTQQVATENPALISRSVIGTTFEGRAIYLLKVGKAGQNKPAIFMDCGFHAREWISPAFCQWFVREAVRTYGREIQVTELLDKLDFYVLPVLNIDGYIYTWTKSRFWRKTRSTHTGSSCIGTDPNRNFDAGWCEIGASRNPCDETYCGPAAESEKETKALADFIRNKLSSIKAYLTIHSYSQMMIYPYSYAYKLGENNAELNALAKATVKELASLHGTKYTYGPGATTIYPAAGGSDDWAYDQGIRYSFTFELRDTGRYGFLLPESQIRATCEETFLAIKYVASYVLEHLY
Briefly: Resistance in vitro to digestion with carboxypeptidase B. The data set is classed as in vitro ADME.

The test system of data set [1] is streptozotocin-induced diabetic rats. Briefly: Stimulation of islet neogenesis in vivo, glucose challenge in diabetic rats. Also on record: species or system rat. The protocol: After treatment, rats were evaluated for ability to restore plasma glucose to resting levels, shown on the ordinate, as a function of time in minutes shown on the abscissa, after an oral glucose challenge.
EGF51N produced as above was used in an assay to measure to stimulation of islet neogenesis in vivo, as measured by lower blood concentration of treated animals to a subsequent challenge by glucose, to diabetic rats.

The test system of data set [2] is anaesthetized gastric fistula rats. Description: Inhibition of gastric acid secretion in vivo. Also noted: species or system rat. The settings on record: after intravenous bolus injection of 8 μg.
[3] abbreviates: relative enzyme concentration (ratio of carboxypeptidase to EGF) 0.01.
Where [4] appears, read: relative enzyme concentration (ratio of carboxypeptidase to EGF) 0.1.
Setting [5] is: relative enzyme concentration (ratio of carboxypeptidase to EGF) 1 (excess enzyme).

As to `CC[C@H](C)[C@@H]1NC(=O)[C@H](Cc2ccc(O)cc2)NC(=O)CNC(=O)[C@H](C(C)C)NC(=O)[C@H](C(C)C)NC(=O)[C@@H](NC(=O)[C@H](CC(N)=O)NC(=O)[C@@H]2CSSC[C@@H]3NC(=O)[C@H](Cc4ccc(O)cc4)NC(=O)CNC(=O)[C@H](CC(=O)O)NC(=O)[C@H](Cc4c[nH]cn4)NC(=O)[C@H](CO)NC(=O)[C@H](CC(C)C)NC(=O)[C@@H]4CCCN4C(=O)[C@@H](NC(=O)[C@H](CCC(=O)O)NC(=O)[C@H](CO)NC(=O)[C@H](CC(=O)O)NC(=O)[C@H](CO)NC(=O)[C@@H](N)CC(N)=O)CSSC[C@H](NC(=O)[C@H](C(C)C)NC(=O)CNC(=O)[C@H](CC(=O)O)NC(=O)[C@H](Cc4c[nH]cn4)NC(=O)[C@H](CC(C)C)NC3=O)C(=O)N[C@@H](CCSC)C(=O)N[C@@H](Cc3ccc(O)cc3)C(=O)N[C@@H]([C@@H](C)CC)C(=O)N[C@@H](CCC(=O)O)C(=O)N[C@@H](C)C(=O)N[C@@H](CC(C)C)C(=O)N[C@@H](CC(=O)O)C(=O)N[C@@H](CCCCN)C(=O)N[C@@H](Cc3ccc(O)cc3)C(=O)N[C@@H](C)C(=O)N2)CSSC[C@@H](C(=O)N[C@@H](CCC(N)=O)C(=O)N[C@@H](Cc2ccc(O)cc2)C(=O)N[C@@H](CCCNC(=N)N)C(=O)N[C@@H](CC(=O)O)C(=O)N[C@@H](CC(C)C)C(=O)N[C@@H](CCCCN)C(=O)N[C@@H](Cc2c[nH]c3ccccc23)C(=O)N[C@@H](Cc2c[nH]c3ccccc23)C(=O)N[C@@H](CCC(=O)O)C(=O)N[C@@H](CC(C)C)C(=O)N[C@@H](CCCNC(=N)N)C(=O)O)NC(=O)[C@H](CCCNC(=N)N)NC(=O)[C@H](CCC(=O)O)NC(=O)CNC1=O` [EGF53, reference compound], the “% remaining” value with carboxypeptidase B (setting [3]) worked out at 75%; with carboxypeptidase B (setting [4]), 1%; with carboxypeptidase B (setting [5]) it was 1%.
Turning to “EGF51N: modified human EGF, chain length 51 amino acids, C-terminus residue asparagine instead of glutamic acid; produced in Pichia pastoris (NSDSECPLSHDGYCLHDGVCMYIEALDKYACNCVVGYIGERCQYRSLKYYN; not fully specified; Recombinant human EGF51N)”, the “restoration of plasma glucose to resting levels after oral glucose challenge” value in data set [1] (40 μg/kg/day of each of human gastrin and EGF51N, intraperitoneal continuous infusion for 14 days) was “Rapid restoration to resting levels of plasma glucose”. In addition, the “potency in stimulation of islet neogenesis” value in data set [1] (diabetic rats, glucose challenge, compared with positive control TGFα) was “equivalent to the positive control TGFα”. Further, in data set [2], the “duration of inhibition of gastric acid production” value fell in the range of 20 to 50 min. The “onset of inhibition of gastric acid production” value in data set [2] was in the range of 10 to 20 min. The “% remaining” value with carboxypeptidase B (setting [3]) was found to be 75%; with carboxypeptidase B (setting [4]), 30%; with carboxypeptidase B (setting [5]) it was 6%.
